Results reported in publication PMC9814550, “Exo-selective intermolecular Diels–Alder reaction by PyrI4 and AbnU on non-natural substrates” (Communications Chemistry, 2021).

Tests used:
Test in all cases: intermolecular Diels-Alder kinetics
[1] = substrate: C=C/C=C/NC(=O)OCc1ccc(C(=O)OC)cc1; type: biochemical, Parafrankia colletiae; settings: co-substrate 2, PBS pH 7.4, 37 °C
Text: intermolecular Diels-Alder kinetics on AbnU

[2] = substrate: C=C/C=C/NC(=O)OCc1ccc(C(=O)OC)cc1; type: biochemical, Streptomyces rugosporus; settings: co-substrate 2, PBS pH 7.4, 37 °C
Text: (§1) intermolecular Diels-Alder kinetics on PyrI4

[3] = substrate: C=CC(=O)N(C)C; type: biochemical, Streptomyces rugosporus; settings: co-substrate 1a, PBS pH 7.4, 37 °C
Text: as §1

Row | Protein | Km [1] [µM] | kcat [1] [s⁻¹] | Km [2] [µM] | kcat [2] [s⁻¹] | Km [3] [µM] | kcat [3] [s⁻¹]
1 | AbnU (Parafrankia colletiae) (protein, N-terminal poly-His tag, pET28a(+), codon-optimised synthetic gene, E. coli; dimer) MSVVHEGIWEPQIRNEQNVNVADPQVGQIGSYYDELYDSSRELLGITIGRYEIRYKKVGGAVLTYYSEDLFLRDGIIHAEGWADFNDVKNGVWVGYPAVGLDGVYRGLDGRREWRVIEPDQPVEARISLHG | 200 ± 10 | 1.17e-05 ± 2.8e-07 |  |  |  | 
2 | PyrI4 (Streptomyces rugosporus) (protein, full length, N-terminal poly-His tag, pET28a(+), codon-optimised synthetic gene, E. coli) MTTPQIDERAMEAGAAALQETIVDPGPLDVTALAVAAALAAGLHSAADDPAAALDKCIVLDELTEFAEKLVVHDRPGGIGTTVEYVEVYEDASGVRLGTATGNAVVLKMEPHMWQFHQSVSELADGSFEAVGVIDCTAMLRRMTQVLRVTGRSGRYAGKSGFMTLAISDPNQRPPHYSVQVVLC |  |  | 200 ± 10 | 6.39e-06 ± 5.6e-07 | 100000 ± 1250 | 6.39e-06 ± 5.6e-07
